# Where “and” joins values, the source holds several entries; their conditions need not be identical. Equal entries are not always repeated.
# B1: C-terminally triple HA-tagged Pun1p expressed via the MET25 promoter from plasmid YEpM-PUN1-HA (natural protein, S. cerevisiae, UniProt Q06991 1-263, looked up)
# chain: MRNFFTLFFAAIFSLGALILAIVACAGSTKNYSPINKIYCAELDLSQMKVSTVLPSLSSATLSSLGLPSYINIGLWSYCTVDSSHNIQSCSSPHGIQNFNLSSLVYDNINNNEALELMDSVASVVLPEKLKSKMTYYNNLVKCMFITILIGIVLTFVNLVFNVLRWIIHIRPLTWFGAFFSFFAFAALLVSIGSCLGTYSYIKYILKHNYSDYGISMSIGRNYQGLMWGAVVGALLNFILWCSVRSRPTVIYANAPIEEKPLI
# Key:
# cross-linking = biological target: the molecule itself; assay: cross-linking
# native gel or EMSA = biological target: the molecule itself; assay: native gel or EMSA
protein,measurement,setting,value
B1,stoichiometry N,cross-linking,2 and 4 and 6
same,stoichiometry N,native gel or EMSA,10 and 12 and 8

# Source: publication PMC3062784 (Biochimica et Biophysica Acta, 2011)
